B1: Ribonuclease, P00648 (parent)
chain: MMKMEGIALKKRLSWISVCLLVLVSAAGMLFSTAAKTETSSHKAHTEAQVINTFDGVADYLQTYHKLPDNYITKSEAQALGWVASKGNLADVAPGKSIGGDIFSNREGKLPGKSGRTWREADINYTSGFRNSDRILYSSDWLIYKTTDHYQTFTKIR

Variants of: B1
Conditions: Bacillus amyloliquefaciens; pH 6.3; 25 °C; Urea; Fluorescence; MES 1.00 M; NaCl 613 mM; reversible: yes; structure 1BNI; whole UniProt chain shown

| Variant | ddG of mutation (higher = less stable) [kJ/mol] | denaturant m value [kcal/mol/M] | denaturant midpoint (higher = more stable) [M] | unfolding free energy [kJ/mol] |
| --- | --- | --- | --- | --- |
| Y64F | 2.43 | 2.16 | 4.43 | 40 |
| Y60F | 2.64 | 2.17 | 4.38 | 39.8 |
| Y60A | 15.4 | 2.26 | 2.86 | 27 |
| Y60F Y64F | 5.15 | 2.08 | 4.29 | 37.3 |
| Y60A Y64A | 19.9 | 2.22 | 2.43 | 22.6 |
